The source of these data is PMC3135484 (Molecular Biology of the Cell, 2011).

T1: Vps16 (individual HOPS subunit, TAP-purified) (yeast (S. cerevisiae), UniProt Q03308 1-798)
T1 sequence: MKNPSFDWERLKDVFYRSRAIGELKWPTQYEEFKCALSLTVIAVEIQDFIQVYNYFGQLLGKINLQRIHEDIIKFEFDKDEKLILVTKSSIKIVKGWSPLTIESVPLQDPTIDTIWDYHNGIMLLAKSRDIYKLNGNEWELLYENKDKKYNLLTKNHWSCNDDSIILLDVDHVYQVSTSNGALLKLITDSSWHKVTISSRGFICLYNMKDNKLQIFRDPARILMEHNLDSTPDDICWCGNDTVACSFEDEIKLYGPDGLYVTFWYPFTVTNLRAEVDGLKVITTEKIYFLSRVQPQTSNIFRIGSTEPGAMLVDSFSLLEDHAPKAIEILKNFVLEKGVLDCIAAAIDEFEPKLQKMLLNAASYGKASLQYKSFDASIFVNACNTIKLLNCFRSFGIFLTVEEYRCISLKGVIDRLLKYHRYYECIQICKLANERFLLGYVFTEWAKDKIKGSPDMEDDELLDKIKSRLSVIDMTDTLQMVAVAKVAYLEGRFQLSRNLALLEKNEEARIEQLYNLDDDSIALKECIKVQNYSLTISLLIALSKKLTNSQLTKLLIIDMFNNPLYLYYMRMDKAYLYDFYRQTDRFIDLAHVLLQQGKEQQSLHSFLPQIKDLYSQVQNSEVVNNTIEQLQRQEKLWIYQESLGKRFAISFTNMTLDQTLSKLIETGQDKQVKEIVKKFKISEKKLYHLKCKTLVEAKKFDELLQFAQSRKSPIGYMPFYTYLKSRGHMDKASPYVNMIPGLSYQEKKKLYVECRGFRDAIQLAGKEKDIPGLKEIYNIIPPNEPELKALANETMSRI

T2: His-tagged Vam7 (1-316) (S. cerevisiae, UniProt P32912 1-316)
T2 sequence: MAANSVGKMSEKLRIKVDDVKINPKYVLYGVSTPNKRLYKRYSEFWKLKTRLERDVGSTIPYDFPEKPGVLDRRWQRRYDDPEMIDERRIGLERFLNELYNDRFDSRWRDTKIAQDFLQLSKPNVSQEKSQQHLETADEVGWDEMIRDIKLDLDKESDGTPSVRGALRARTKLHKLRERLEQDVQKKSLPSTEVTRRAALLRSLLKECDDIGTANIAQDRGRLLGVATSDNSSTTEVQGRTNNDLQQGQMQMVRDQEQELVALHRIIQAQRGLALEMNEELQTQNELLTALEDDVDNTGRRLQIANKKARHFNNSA

B1: GST-tagged Vam7 (1-316) (natural protein)
chain: T2 sequence
B2: GST-tagged Vam3 (Vam3 1-260, ΔTMD) (domain or fragment)
chain: MSFFDIEAQSSKGNSQQEPQFSTNQKTKELSNLIETFAEQSRVLEKECTKIGSKRDSKELRYKIETELIPNCTSVRDKIESNILIHQNGKLSADFKNLKTKYQSLQQSYNQRKSLFPLKTPISPGTSKERKDIHPRTEAVRQDPESSYISIKVNEQSPLLHNEGQHQLQLQEEQEQQQQGLSQEELDFQTIIHQERSQQIGRIHTAVQEVNAIFHQLGSLVKEQGEQVTTIDENISHLHDNMQNANKQLTRADQHQRDRN
B3: GST-tagged Vam7 PX domain (1-129) (domain or fragment)
chain: MAANSVGKMSEKLRIKVDDVKINPKYVLYGVSTPNKRLYKRYSEFWKLKTRLERDVGSTIPYDFPEKPGVLDRRWQRRYDDPEMIDERRIGLERFLNELYNDRFDSRWRDTKIAQDFLQLSKPNVSQEK
B4: SNARE complex assembled on GST-Vam7 SD with Vam3, Vti1 and Ykt6 (complex)
chain 1: PSTEVTRRAALLRSLLKECDDIGTANIAQDRGRLLGVATSDNSSTTEVQGRTNNDLQQGQMQMVRDQEQELVALHRIIQAQRGLALEMNEELQTQNELLTALEDDVDNTGRRLQIANKKARHFNNSA
chain 2: MSFFDIEAQSSKGNSQQEPQFSTNQKTKELSNLIETFAEQSRVLEKECTKIGSKRDSKELRYKIETELIPNCTSVRDKIESNILIHQNGKLSADFKNLKTKYQSLQQSYNQRKSLFPLKTPISPGTSKERKDIHPRTEAVRQDPESSYISIKVNEQSPLLHNEGQHQLQLQEEQEQQQQGLSQEELDFQTIIHQERSQQIGRIHTAVQEVNAIFHQLGSLVKEQGEQVTTIDENISHLHDNMQNANKQLTRADQHQRDRNKCGK
chain 3: MSSLLISYESDFKTTLEQAKASLAEAPSQPLSQRNTTLKHVEQQQDELFDLLDQMDVEVNNSIGDASERATYKAKLREWKKTIQSDIKRPLQSLVDSGDRDRLFGDLNASNIDDDQRQQLLSNHAILQKSGDRLKDASRIANETEGIGSQIMMDLRSQRETLENARQTLFQADSYVDKSIKTLKTMTRR
chain 4: MRIYYIGVFRSGGEKALELSEVKDLSQFGFFERSSVGQFMTFFAETVASRTGAGQRQSIEEGNYIGHVYARSEGICGVLITDKEYPVRPAYTLLNKILDEYLVAHPKEEWADVTETNDALKMKQLDTYISKYQDPSQADAIMKVQQELDETKIVLHKTIENVLQRGEKLDNLVDKSESLTASSKMFYKQAKKSNSCCIIM
B5: minimal SNARE complex assembled on GST-Vam7 SD with Vam3ΔN, Vti1 and Ykt6 (complex)
chain 1: B4 chain 1
chain 2: ESSYISIKVNEQSPLLHNEGQHQLQLQEEQEQQQQGLSQEELDFQTIIHQERSQQIGRIHTAVQEVNAIFHQLGSLVKEQGEQVTTIDENISHLHDNMQNANKQLTRADQHQRDRNKCGK
chain 3: B4 chain 3
chain 4: B4 chain 4
B6: Q-SNARE complex assembled on GST-Vam7 SD with Vam3 and Vti1 (complex)
chain 1: B4 chain 1
chain 2: B4 chain 2
chain 3: B4 chain 3
B7: His-tagged Vti1 (1-189, ΔTMD) (domain or fragment)
chain: B4 chain 3
B8: His-tagged Ykt6 (1-200) (natural protein)
chain: B4 chain 4

Experiment in all cases: pull-down
Test [1] deals with T1, Vps16 (individual HOPS subunit, …).
In test [2] the target is HOPS (homotypic fusion and protein sorting) complex (yeast (S. cerevisiae), UniProt P38959;Q07468;P20795;P12868;Q03308;P27801).
In the next test the target is T2, His-tagged Vam7 (1-316).
Test [3] deals with B2.

Regarding B1, the binding result in test [1] and in test [2] was “binds” throughout.

Turning to B2, in the test with His-tagged Vam7 (1-316), the binding result was “binds”. B3: the binding result in test [2] is reported as “binds”.

Regarding B4, in test [2], the binding result is given as “binds”. Same read-out and setting: the result for B5 reads “binds”; that for B6, “binds”. B7: the binding result in test [3] is given as “binds”. As to B8, the binding result in test [3] is “binds”.
